Assay results from the supplement of paper PMC10598134.
± gives the standard deviation.

Test: collision cross section of modified peptide (TIMS, N2, iRT-aligned); higher = larger / more extended gas-phase ion
Protocol: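 1/K0 was aligned run-wise to spiked iRT peptides and converted to CCS in N2 (Mason-Schamp). Values are the mean of 1-3 technical replicates for the most abundant feature at each charge state.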

[1] = charge state: 2, modification: Phospho (Y)
[2] = charge state: 2, modification: Citrullination (R)
[3] = charge state: 2, modification: Methyl (K)
[4] = charge state: 3, modification: Methyl (K)
[5] = charge state: 2, modification: GlyGly (K)
[6] = charge state: 3, modification: GlyGly (K)
[7] = charge state: 2, modification: Hydroxyproline
[8] = charge state: 3, modification: Methyl (R)
[9] = charge state: 2, modification: Nitro (Y)
[10] = charge state: 2, modification: Methyl (R)
[11] = charge state: 2, modification: Formyl
[12] = charge state: 2, modification: Glutarylation
[13] = charge state: 3, modification: Glutarylation
[14] = charge state: 2, modification: Butyryl
[15] = charge state: 3, modification: HexNAc (ST)
[16] = charge state: 3, modification: Dimethyl (K)
[17] = charge state: 2, modification: HexNAc (ST)
[18] = charge state: 2, modification: hydroxyisobutyryl
[19] = charge state: 3, modification: hydroxyisobutyryl
[20] = charge state: 2, modification: Crotonyl
[21] = charge state: 3, modification: Crotonyl
[22] = charge state: 3, modification: Biotin

**Q.** With IYHPNVDK [_IY(Phospho (Y))HPNVDK_] as the substance, how does the collision cross section [1] read?
**A.** 353.97 ± 0.065 Å²

**Q.** What about the collision cross section (charge state: 3, modification: Phospho (Y)) of the same substance?
**A.** 437.48 Å²

**Q.** With “GLATFPSRGAK [_GLATFPSR(Citrullination (R))GAK_]” as the substance, how does the collision cross section [2] read?
**A.** 353.86 ± 0.53 Å²

**Q.** For “VDIDAPDVSIEGPDAKLK [_VDIDAPDVSIEGPDAK(Methyl (K))LK_]”, which collision cross section [3] is on record?
**A.** 453.93 ± 0.34 Å²

**Q.** What about the collision cross section [4] of the same substance?
**A.** 544.25 ± 0.42 Å²

**Q.** With “LGGDLGTYVINK [_LGGDLGTY(Phospho (Y))VINK_]” as the substance, how does the collision cross section [1] read?
**A.** 375.25 ± 0.063 Å²

**Q.** With “IISSIEQKEENK [_IISSIEQK(GlyGly (K))EENK_]” as the substance, how does the collision cross section [5] read?
**A.** 403.29 ± 1.5 Å²

**Q.** And the collision cross section [6]?
**A.** 482.93 Å²

**Q.** Which collision cross section [7] does the source give for “GGPGAPGAPGPK [_GGPGAP(Hydroxyproline)GAPGPK_]” here?
**A.** 326.77 ± 0.24 Å²

**Q.** Which collision cross section [3] does the source give for “VGIDTPDIDIHGPEGKLK [_VGIDTPDIDIHGPEGK(Methyl (K))LK_]” here?
**A.** 463.74 Å²

**Q.** And the collision cross section [4]?
**A.** 542.59 ± 0.45 Å²

**Q.** Which collision cross section [8] does the source give for “GSGLGARGSSYGVTSTESYK [_GSGLGAR(Methyl (R))GSSYGVTSTESYK_]” here?
**A.** 519.94 ± 0.91 Å²

**Q.** For YIGTGHADTTK [_Y(Nitro (Y))IGTGHADTTK_], which collision cross section [9] is on record?
**A.** 358.04 ± 1.2 Å²

**Q.** And the collision cross section (charge state: 3, modification: Nitro (Y))?
**A.** 452.29 ± 0.83 Å²

**Q.** Which collision cross section [10] does the source give for GRGAPPPPPSR [_GR(Methyl (R))GAPPPPPSR_] here?
**A.** 339.22 Å²

**Q.** What about the collision cross section [8] of the same substance?
**A.** 437.5 Å²

**Q.** For “IVSGKDYNVTANSK [_IVSGK(Formyl)DYNVTANSK_]”, which collision cross section [11] is on record?
**A.** 405.86 ± 0.56 Å²

**Q.** For SGFGKFER [_SGFGK(Gluratylation)FER_], which collision cross section [12] is on record?
**A.** 340.69 ± 0.69 Å²

**Q.** Which collision cross section [1] does the source give for “GYDVIAQAQSGTGK [_GY(Phospho (Y))DVIAQAQSGTGK_]” here?
**A.** 388.75 ± 0.77 Å²

**Q.** For “SPDEAYAIAKK [_SPDEAYAIAK(Gluratylation)K_]”, which collision cross section [12] is on record?
**A.** 380.21 ± 0.73 Å²

**Q.** And the collision cross section [13]?
**A.** 455.46 ± 1.2 Å²

**Q.** With “PSVGSQSNQAGQGKR [_PSVGSQSNQAGQGK(Gluratylation)R_]” as the substance, how does the collision cross section [12] read?
**A.** 412.64 ± 1.7 Å²

**Q.** And the collision cross section [13]?
**A.** 479.06 ± 9.1 Å²

**Q.** With “SKLLFSNTAAQK [_SK(Methyl (K))LLFSNTAAQK_]” as the substance, how does the collision cross section [3] read?
**A.** 387.94 ± 0.83 Å²

**Q.** And the collision cross section [4]?
**A.** 461.44 ± 4.6 Å²

**Q.** With DYNVTANSK [_DY(Phospho (Y))NVTANSK_] as the substance, how does the collision cross section [1] read?
**A.** 337.74 ± 0.067 Å²

**Q.** Which collision cross section [11] does the source give for ALASIDSKLNQAK [_ALASIDSK(Formyl)LNQAK_] here?
**A.** 395.38 ± 0.55 Å²

**Q.** Which collision cross section [14] does the source give for GEVQVSDKER [_GEVQVSDK(Butyryl)ER_] here?
**A.** 363.29 ± 0.49 Å²

**Q.** What does the source list for “SITHSTVGSKGEK [_SITHSTVGSK(Gluratylation)GEK_]”?
**A.** collision cross section [12]: 400.44 ± 2.1 Å²; collision cross section [13]: 444.81 ± 2 Å²

**Q.** With “LGSASSSHGSIQESHK [_LGS(HexNAc (ST))ASSSHGSIQESHK_]” as the substance, how does the collision cross section [15] read?
**A.** 519.96 ± 0.18 Å²

**Q.** With LYLPVQNK [_LY(Nitro (Y))LPVQNK_] as the substance, how does the collision cross section [9] read?
**A.** 340.84 ± 0.55 Å²

**Q.** With “GKLGVPGLPGYPGR [_GKLGVP(Hydroxyproline)GLPGYPGR_]” as the substance, how does the collision cross section [7] read?
**A.** 384.86 ± 0.79 Å²

**Q.** And the collision cross section (charge state: 3, modification: Hydroxyproline)?
**A.** 481 ± 2.9 Å²

**Q.** With “TQDQISNIKYHEEFEK [_TQDQISNIK(Methyl (K))YHEEFEK_]” as the substance, how does the collision cross section [4] read?
**A.** 547.22 ± 0.37 Å²

**Q.** For “ANEKTESSSAQQVAVSR [_ANEK(Dimethyl (K))TESSSAQQVAVSR_]”, which collision cross section [16] is on record?
**A.** 490.79 ± 1.6 Å²

**Q.** With PAVTAAPK [_PAVT(HexNAc (ST))AAPK_] as the substance, how does the collision cross section [17] read?
**A.** 333.39 ± 1 Å²

**Q.** With “LLFSNTAAQKLR [_LLFSNTAAQK(hydroxyisobutyryl)LR_]” as the substance, how does the collision cross section [18] read?
**A.** 408.17 ± 0.55 Å²

**Q.** And the collision cross section [19]?
**A.** 486.85 ± 1.9 Å²

**Q.** Which results are given for IQQELQTAKK [_IQQELQTAK(Crotonyl)K_]?
**A.** collision cross section [20]: 386.16 ± 0.79 Å²; collision cross section [21]: 431.2 ± 1.6 Å²

**Q.** Which collision cross section [1] does the source give for AQSYAQQLGR [_AQSY(Phospho (Y))AQQLGR_] here?
**A.** 354.7 ± 0.065 Å²

**Q.** Which collision cross section [5] does the source give for “AAQASDLEKIHLDEK [_AAQASDLEK(GlyGly (K))IHLDEK_]” here?
**A.** 469.33 ± 0.94 Å²

**Q.** And the collision cross section [6]?
**A.** 508.49 ± 1.9 Å²

**Q.** Which results are given for “ANEKTESSSAQQVAVSR [_ANEK(hydroxyisobutyryl)TESSSAQQVAVSR_]”?
**A.** collision cross section [18]: 442.41 ± 0.29 Å²; collision cross section [19]: 538.5 ± 0.04 Å²

**Q.** What does the source list for LDHLAEKFR [_LDHLAEK(Crotonyl)FR_]?
**A.** collision cross section [20]: 378.01 ± 0.89 Å²; collision cross section [21]: 440.09 ± 1.3 Å²

**Q.** Which collision cross section (charge state: 2, modification: Biotin) does the source give for KYEEIDNAPEER [_K(Biotin)YEEIDNAPEER_] here?
**A.** 430.04 ± 3.1 Å²

**Q.** What about the collision cross section [22] of the same substance?
**A.** 521.46 ± 0.34 Å²

**Q.** With “IHVQSSSDSSDEPAEKR [_IHVQSSSDSSDEPAEK(Biotin)R_]” as the substance, how does the collision cross section [22] read?
**A.** 513.52 Å²

**Q.** Which collision cross section [21] does the source give for “DAIHFYNKSLAEHR [_DAIHFYNK(Crotonyl)SLAEHR_]” here?
**A.** 509.89 ± 2 Å²

**Q.** With “EEKPAVTAAPK [_EEKPAVT(HexNAc (ST))AAPK_]” as the substance, how does the collision cross section [17] read?
**A.** 383.27 ± 0.13 Å²

**Q.** And the collision cross section [15]?
**A.** 484.12 ± 0.17 Å²

**Q.** What does the source list for “VDVEVPDVSLEGPEGKLK [_VDVEVPDVSLEGPEGK(Dimethyl (K))LK_]”?
**A.** collision cross section (charge state: 2, modification: Dimethyl (K)): 459.72 ± 1.8 Å²; collision cross section [16]: 548.43 ± 0.78 Å²

**Q.** Which collision cross section [18] does the source give for “LGSPSGKTGTCR [_LGSPSGK(hydroxyisobutyryl)TGTCR_]” here?
**A.** 375.43 Å²

**Q.** With “ALLQAKASGK [_ALLQAK(hydroxyisobutyryl)ASGK_]” as the substance, how does the collision cross section [18] read?
**A.** 353.14 ± 1.3 Å²

**Q.** For AQSYAQQLGR [_AQSY(Nitro (Y))AQQLGR_], which collision cross section [9] is on record?
**A.** 354.17 ± 0.17 Å²

**Q.** For “ANAIGRGAK [_ANAIGR(Citrullination (R))GAK_]”, which collision cross section [2] is on record?
**A.** 313.03 ± 0.86 Å²

**Q.** For “SLYASSPGGVYATR [_S(HexNAc (ST))LYASSPGGVYATR_]”, which collision cross section [15] is on record?
**A.** 478.28 ± 0.91 Å²

**Q.** For “SKHLQEQLNELK [_SK(Dimethyl (K))HLQEQLNELK_]”, which collision cross section [16] is on record?
**A.** 492.51 ± 0.54 Å²

**Q.** Which collision cross section [12] does the source give for “VSPASSVDSNIPSSQGYKK [_VSPASSVDSNIPSSQGYK(Gluratylation)K_]” here?
**A.** 466.49 ± 3 Å²

**Q.** And the collision cross section [13]?
**A.** 552.93 ± 0.14 Å²

**Q.** Which collision cross section [17] does the source give for “SAGSVESPSVSSTHR [_SAGSVESPSVS(HexNAc (ST))STHR_]” here?
**A.** 412.88 ± 0.14 Å²

**Q.** With “AGPNASIISLKSDK [_AGPNASIISLK(Butyryl)SDK_]” as the substance, how does the collision cross section [14] read?
**A.** 413.93 ± 1.1 Å²

**Q.** Which collision cross section [10] does the source give for YRGDYDR [_YR(Methyl (R))GDYDR_] here?
**A.** 328.99 ± 0.25 Å²

**Q.** What about the collision cross section [8] of the same substance?
**A.** 408.46 ± 0.36 Å²

**Q.** With VGTASVLQPVKK [_VGTASVLQPVK(Formyl)K_] as the substance, how does the collision cross section [11] read?
**A.** 375.49 ± 0.89 Å²

**Q.** For GSLEKGSPEDK [_GSLEK(GlyGly (K))GSPEDK_], which collision cross section [5] is on record?
**A.** 367.44 ± 0.9 Å²

**Q.** What about the collision cross section [6] of the same substance?
**A.** 425.67 ± 1.6 Å²

**Q.** Which results are given for “DTPTSAGPNSFNKGK [_DTPTSAGPNSFNK(Crotonyl)GK_]”?
**A.** collision cross section [20]: 412.68 ± 0.55 Å²; collision cross section [21]: 462.19 Å²

**Q.** Which collision cross section [12] does the source give for “DTGEKLTVAENEAETK [_DTGEK(Gluratylation)LTVAENEAETK_]” here?
**A.** 451.19 ± 1.1 Å²

**Q.** And the collision cross section [13]?
**A.** 527.35 Å²

**Q.** For “GEVGAGAGPGAQAGPSAKR [_GEVGAGAGPGAQAGPSAK(Trimethyl (K))R_]”, which collision cross section (charge state: 3, modification: Trimethyl (K)) is on record?
**A.** 489.76 ± 5.2 Å²

**Q.** With “PGSPGPPGSPGPR [_PGSPGPPGSP(Hydroxyproline)GPR_]” as the substance, how does the collision cross section [7] read?
**A.** 352.39 ± 1.1 Å²

**Q.** With AIQLNPSYIR [_AIQLNPSY(Phospho (Y))IR_] as the substance, how does the collision cross section [1] read?
**A.** 384.89 ± 0.65 Å²

**Q.** For VGTASVLQPVKK [_VGTASVLQPVK(Succinyl)K_], which collision cross section (charge state: 2, modification: Succinyl) is on record?
**A.** 383.62 ± 0.87 Å²

**Q.** And the collision cross section (charge state: 3, modification: Succinyl)?
**A.** 412.94 ± 4.4 Å²

**Q.** For “DLGKFQVATDALK [_DLGK(Crotonyl)FQVATDALK_]”, which collision cross section [20] is on record?
**A.** 409.72 ± 0.55 Å²
